Laboratory results from the DeepSol protein solubility set.

Assay: soluble on expression in E. coli; label from the status in PepcDB or PDB records

Row | Sequence | soluble on expression in E. coli
1 | MSENIRESISAKTLSKDQMETSYVSLKTWIEDSLDLFKNDLLPLLYPLFIHIYFDLIQQNKTDEAKEFFEKYRGDHYNKSEEIKQFESIYTVQHIHENNFAYTFKNSKYHLSMGRYAFDLLINFLEERNLTYILKILNQHLDIKVYVGPKSEERPQGIETSVVDAEIDLTTFLVSRECEDAILGDEQYRYDHLETYVLQLRKQREMKPKDSVYKPNASQIHAEIEKLKDLCKRVAVNKNNLPSICCYTIHNTYEGLTAAEISNDLKLMACGFKDSYVEVYSLTNESLKKLKSSSELAKSDIKTLNEEKFEEVGSSYKLVGHSGPVYGLKFFSSNKFLVSSSQDCTVCLWSLDLLCLLAVYKAHAFPVWCVDVAPNDYFFASGAGDRQAIVWSVMTSKPERLIISSLSDVTAVKFHPNSSYLFTGSSDHRVRMHDISTASVVRIFCGHTDTVTCMDVSHCGKFLASGSKDRTVLLWDIQSSKLLGKYVGHENTVFSVSFCFYGSVLASCGADNSVRLWDRTDHKGGCLGTYYTKNTPLLCVKFGYRNIISCTGPFIS | soluble
2 | SGQTALAGGSSSTPTPQALYPDLSCPEGLEELLSAPPPDLGAQRRHGWNPKDCSENIEVKEGGLYFERRPVAQSTDGARGKRGYSRGLHAWEISWPLEQRGTHAVVGVATALAPLQTDHYAALLGSNSESWGWDIGRGKLYHQSKGPGAPQYPAGTQGEQLEVPERLLVVLDMEEGTLGYAIGGTYLGPAFRGLKGRTLYPAVSAVWGQCQVRIRYLGERRAEPHSLLHLSRLCVRHNLGDTRLGQVSALPLPPAMKRYLLYQ | not soluble
3 | MHAILNTFKSGVGDCVFMRLIKDDATFSIMIDCGKYTPEINLFIKEKLHKHIDLLIVTHIDDDHINGVCEMLIAMPEITIGKIFYNCYQLLSGEKIAALTKIVSSDIEILTQNLPKQRTDTNGKINMEHASVLASILLKNPQWNSAWEKTFYIENSLEPYPLGDGLGQLVFISPTSSELKTLDMNFAREYLRLTRHEVINAPFEGRETLFELVSRLVSMKIREREYVKKQKIAGLIDKYSVERWKKAKDFEPSGITDENKGSIAFIWEYKDTKVLFMGDAEPDIVKTAIVNKYGKVDNMKAIKVSHHGSKHSTSKELMEVIDSFDYFITGGSVGDKPSMETLVKIVDRGDNKVRTIHYNYDRNILMKDMASDESVELRQKYNFQIDTNNELEFEY | not soluble
4 | MTKEEFIKQKEQRKTFLVIAEEEGDSITPISLYRRMKGKKKFLLESSQLHQDKGRYSYLGCNPYGEVKSVGTEVERTIYGRAEKLQSNVLQVLEEIIAPSQVDSPFPFCGGAVGYIGYDVIRQYENIGADLHDPLNIPEVHLLLYREFIVYDHLRQKLSFVYVCREDDSADYEEVYERLRVYKEEVLQGEEAEVTEIRSTLSFTSSITEREFCVMVETAKEHIGAGDIFQVVLSQRLQSECIGDPFALYRKLRIANPSPYMFYIDFQDYVVLGSSPESLLSVREDKVMTNPIAGTRPRGKTKEEDTEIEKELLENEKERAEHMMLVDLGRNDIGRVSEIGSVTIDKYMKVEKYSHVMHIVSEVYGTLRKQMSGFDALAYCLPAGTVSGAPKIRAMEIINELENEKRNVYAGAVGYVSFSGNLDMALAIRTMVVKDEKAYVQAGAGIVYDSDPVAEYEETLNKARALLEVMK | not soluble
5 | MGSDKIHHHHHHMTKFSVYIGIDWANDKHDVCVQVANSSARKFEVIKHSPKSINEWITSLHKQYKGQIAVAIELSKGPIVYALQKFDFITIHPVNTSMLAQYRKAFSPSGAKDDPTDAELALDLMLRYPNKIKALKMDSESVRKLTYLVEQRRKLVDDKRRFSNRLIITLKEYYPHLLDWFSHRGSGIFCDFITRWPNLQKLKRARADTLKKFFGSYPGRTAAYSVKRIQSISEAEPLTLDNAVIESHQLLAVALANQLLVAVKVIKVFDREISELFNALPDAELYKSLPGTGPCLAPRLLVAIGENRSRFNSASEIQMYAVIAPVTVRSGQKSWIHWRYQCSKFTRQSFIEWATKSIRQSYWAEIYYQQQREKGNTHQAAVRSLAFKWIRIIYRCWKTKEPYNEAKYLKALSDRNSPLLFKEKAC | not soluble
6 | MEPPSPVGNPEIPSEIPKNAEKTVYKYIDEQGIEIFIEDPIYVEENGNTMVYGNPYDPTTSSQEIYEEEIVDEEYIFQVDSLPSTSSSSAAAPPPSKRARLIKDGVAYPSNTVLLTNQSLEAKNATFLAKAGARREEKEPKKQIPMINKHGSILNRNLPGMTNMFKVMAESALAKTDEMIKQEAMNNTVEEVEKGRKLDNSSRFGLENEESDQDGQSDTPPPMERLGEADDFQPTTTTFDQWPLYSNRAIDFKGFSTYQKKNYFENWKILSSFKKVFSKNFQFLAKILKFISMRDPHRNSRNRRGKNIPSGKTRFYTETADGNLIRADDGKGRLKQWTKEFTYKIILKKYDNQVTRGGDEGRGQFQRKIYTGFKGAGRLPFSIVTYSWHAGRPWNFVPPVTSRQTVRRPNWEKKSYEKVNMTSMPQMVSAYYEGFNIYSHCIVSFDEATAIMLGATPIDTNKLVIIIVAGPKISRNFPIFRLCSSVPLGYRQNGTFVIDLKRMGHCLLELRRDDNGIWNKPSGFSRFYKISENGDAIRVDKAGKLPAGMDYDVKIASKRYEHTQVQKNFVRKIYTAKGKNSESFPGSPEYAVIVYYWKGEPIQFEPAFKQNGVRTESKEYSRYQQIADEEQEFVEATGSMDPVVENLQKNLAPSPPPLLKRVTFPPEPQQSTSSTSAENLHELKLQLIRREMQNQDRFSAVLDRADGLLARMEQRFGVEHHHHIVHQEQEEEVWDHEQIIEEEEVIVQDTMEY | not soluble
7 | MPFRTIARLNPAKPKAGEEFRLQVVAQHPNEPGTRRDAEGKLIPAKYINLVEVYFEGEKVAEARPGPSTSANPLYAFKFKAEKAGTFTIKLKDTDGDTGEASVKLELV | soluble
8 | MYRISQLAELVGLSRTTLLYYEKLGLIKGERLNNGYRQYSEKDAQRLVLLQNLQAGGLTLKECQACLDAKVNREVLVERLEQLDQEIEQKQNSRQLLAALLGESSLTDWHESLDQLAPEAHIEWLMKQGFDEKQAMRLKWLSKDMNEHERYMQDFDLIFKELERWGPGSESDTLKALQKVPNKSMTLLEIGCGQGIATELFARHTDAMITAVDNEEFALKHLMEKMQQNGLEDKITTVCADMAKMPFETKSFDLIWSEGSAYIMGVQNALKAWKPLLSEDGVLVVSDLVWSTDKPSEGALSFWKKEYPDMVSVSERIKHAQQAGYEVIEHFSLSDAAWEAYYHPLIERLDTLKDKLIDSPVLIDFENEITAFKQRANEFDYEIFILRSR | not soluble
9 | MGSDKIHHHHHHMASIKDVAKLAGVSIATVSRVINGYNNVSEETRKKVIDAIRKLNYHPVYAVKGAVLKRTIGVLVPNFGGFHYNEILTGIEKEAIKRDFTLMISTTLHRTSVELERLEVFFAKRVDGIIVCSSKKDEEQLERLIKSAIPVVVVDREEPEIRLDNVGIDNYAAGRMCAKYLLEKGHRKVLLLKGRKDIYSFSDRERGFIDYSTRHGIDVKVTPCGYFAEHGYHAVERYLKKHGRDFTAIFAINDLSAFGALKALHDLGVLVPDEVSVMGFDDDPISSYTIPPLTTVRQPREEMGRVAFEILYERLSGKKGVARRVVLPVEIVERESVKQL | not soluble
10 | MGSDKIHHHHHHMYFELKENRPHGTPENPFSQYHISDVKRAFQIPVHWHDELEIIYVKQGKLHVTISGENYIGSPKDAFVVSPGSLHLMGSPTGDADYYTFLFPLEYISFQTDDLMEKSILSPLKRGRLMISPQINDTAADICERLIEINEQISGKNAEKTDAANIEAQFETKITLIKFIRKMWRNGLILENGTNGTNTTEKEMITYIRQNYTREISLKEFGAQFHLSEKYISRYFKEHFHITLSQYVNHLRLEHARQLLEESTASVTEVAMCSGYQNVSYFIRSFKKMYGVSPLKYRNFQTLP | not soluble
11 | MAHHHHHHMSKEKLAKEKIEKGQHYEAHQLIKSLINRKLQKNQVSSCMSIIFYFSQKMAKAEQYVLLCDLMYQCCTILTQHNIKFSEEYAKKIIEIFNLCPPNSTEEKYKFMNKCILWSTNDDEIFGYLDFHKAIAYAYFEDKKYSLAHNHFIYLEDNEILYKIICLWQKEGYPSESDFFILRTTLCLLVLDKFEQALDLINKFEPNLDRKDVPLPVQIAYLITCSCIYRSAPLYEDVKYKYRLILNYDPDFQKYIGILDDVLFNKRKHDLFSMFQNIFG | not soluble
